The text below walks through data of patent publication US20210108176A1 (IMPERIAL COLLEGE INNOVATIONS, published 2021).

In the test the target is T1, EZH2 (UniProt Q15910 1-746, limits assumed).
T1 construct: Endogenous protein immunoprecipitated from U266 cell chromatin; also called polycomb complex methyl-transferase EZH2
The experiment in a line: ChIP-reChIP qPCR in U266 cells (IP against RARalpha, then EZH2). Here is the method:
Chromatin immunoprecipitation (ChIP) combined with real-time quantitative polymerase chain reaction (ChIP-RQ-PCR) was performed for anti-H3K4me3, anti-H3K27me3, anti-RNA polymerase II CTD phospho Ser2, anti-RNA polymerase II CTD phospho Ser5, anti-EZH2, anti-RARα and control IgG as previously described²⁵. For Re-ChIP assays, the wash and chromatin elution steps of the first IP were performed with protease inhibitor-containing buffers and the first elution was performed by incubating the magnetic beads in 10 mM DTT/TE for 30 min at 37° C. The eluate of the first IP was diluted at least 20× in ChIP dilution buffer, followed by a second IP according to the same protocol as above. Expression of immunoprecipitated DNA was calculated, either relative to input DNA or DNA immunoprecipitated by control IgG antibody, using the ΔΔCT method.
A general note: Quantitative PCR measures a nucleic acid by following its amplification.

T1 sequence (Q15910 whole entry): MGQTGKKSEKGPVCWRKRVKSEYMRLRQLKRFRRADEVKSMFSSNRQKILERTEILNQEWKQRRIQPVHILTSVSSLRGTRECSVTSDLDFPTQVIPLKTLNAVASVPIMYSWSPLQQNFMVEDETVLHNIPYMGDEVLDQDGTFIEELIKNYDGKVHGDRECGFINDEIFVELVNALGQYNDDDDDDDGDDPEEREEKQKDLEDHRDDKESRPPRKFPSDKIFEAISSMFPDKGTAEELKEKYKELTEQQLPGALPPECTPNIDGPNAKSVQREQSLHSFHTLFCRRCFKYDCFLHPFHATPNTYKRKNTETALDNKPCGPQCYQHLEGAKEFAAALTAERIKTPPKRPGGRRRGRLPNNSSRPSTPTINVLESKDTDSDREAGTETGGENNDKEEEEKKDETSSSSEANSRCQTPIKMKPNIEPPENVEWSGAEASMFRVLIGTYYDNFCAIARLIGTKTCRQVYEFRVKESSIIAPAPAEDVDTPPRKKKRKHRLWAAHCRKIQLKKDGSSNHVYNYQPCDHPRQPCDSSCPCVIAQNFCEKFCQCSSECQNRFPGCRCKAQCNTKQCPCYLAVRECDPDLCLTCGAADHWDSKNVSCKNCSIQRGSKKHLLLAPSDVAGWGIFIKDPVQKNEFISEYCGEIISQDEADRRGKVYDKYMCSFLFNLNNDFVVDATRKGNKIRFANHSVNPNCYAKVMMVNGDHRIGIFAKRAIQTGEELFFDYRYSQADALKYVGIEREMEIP

B1: RARalpha (receptor, UniProt P10276 1-462, looked up)
chain: MASNSSSCPTPGGGHLNGYPVPPYAFFFPPMLGGLSPPGALTTLQHQLPVSGYSTPSPATIETQSSSSEEIVPSPPSPPPLPRIYKPCFVCQDKSSGYHYGVSACEGCKGFFRRSIQKNMVYTCHRDKNCIINKVTRNRCQYCRLQKCFEVGMSKESVRNDRNKKKKEVPKPECSESYTLTPEVGELIEKVRKAHQETFPALCQLGKYTTNNSSEQRVSLDIDLWDKFSELSTKCIIKTVEFAKQLPGFTTLTIADQITLLKAACLDILILRICTRYTPEQDTMTFSDGLTLNRTQMHNAGFGPLTDLVFAFANQLLPLEMDDAETGLLSAICLICGDRQDLEQPDRVDMLQEPLLEALKVYVRKRRPSRPHMFPKMLMKITDLRSISAKGAERVITLKMEIPGSMPPLIQEMLENSEGLDTLSGQPGGGGRDGGGLAPPPGSCSPSLSPSSNRSSPATHSP
notes: Endogenous protein immunoprecipitated from U266 cell chromatin
B1: the binding result is reported as “binds”.
